In publication PMC9482650, “Quantitative fragmentomics allow affinity mapping of interactomes” (Nature Communications, 2022):

Tests used:
Assay in all cases: holdup assay
Parameters in all cases: key: below the threshold = too weak to quantify, mostly under pKd 3.1 to 4
Settings in all cases: plain residues with an end cap or a label only (N-terminal biotin on a linker: ttds)
O00233 = target: O00233
O00560 = target: O00560
O15021 = target: O15021
O43166 = target: O43166
O60759 = target: O60759
O75970 = target: O75970
PTPN13_2, Q12923 = target: PTPN13_2, Q12923
Chain of PTPN13_2, Q12923 (Q12923 1363-1462): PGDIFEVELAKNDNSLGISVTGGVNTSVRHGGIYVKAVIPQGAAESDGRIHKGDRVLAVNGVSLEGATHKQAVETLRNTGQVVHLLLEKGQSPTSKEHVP

Q12923 = target: Q12923
Q13009 = target: Q13009
Q13368 = target: Q13368
Q5TCQ9 = target: Q5TCQ9
Q6ZWJ1 = target: Q6ZWJ1
Q70Z35 = target: Q70Z35
Q8IUC4 = target: Q8IUC4
Q8TB45 = target: Q8TB45
Q8TDM6 = target: Q8TDM6
Q8TEW0 = target: Q8TEW0
Q92614 = target: Q92614
Q96FS4 = target: Q96FS4
Q96HC4 = target: Q96HC4
Q96JB8 = target: Q96JB8
Q96JY6 = target: Q96JY6
Q9C0E4 = target: Q9C0E4
Q9H190 = target: Q9H190
Q9NR12 = target: Q9NR12
Q9UDY2 = target: Q9UDY2
Q9ULJ8 = target: Q9ULJ8
Q9UMS6 = target: Q9UMS6
Q9Y3R0 = target: Q9Y3R0
Q96SB3 = target: Q96SB3
Q9P227 = target: Q9P227

Binder | pKd (O00233) | pKd (O00560) | pKd (O15021) | pKd (O43166) | pKd (O60759) | pKd (O75970) | pKd (Q12923) | pKd (Q13009) | pKd (Q13368) | pKd (Q5TCQ9) | pKd (Q6ZWJ1) | pKd (Q70Z35) | pKd (Q8IUC4) | pKd (Q8TB45) | pKd (Q8TDM6) | pKd (Q8TEW0) | pKd (Q92614) | pKd (Q96FS4) | pKd (Q96HC4) | pKd (Q96JB8) | further results
KLVIKTETTV [RASSF6, Q6ZTQ3] | below the threshold | below the threshold | below the threshold | below the threshold | below the threshold | below the threshold | below the threshold | below the threshold | below the threshold | below the threshold | below the threshold | below the threshold | below the threshold | below the threshold | below the threshold | below the threshold | below the threshold | below the threshold | below the threshold | below the threshold | pKd (PTPN13_2, Q12923): below the threshold; pKd (Q96JY6): below the threshold; pKd (Q9C0E4): below the threshold; pKd (Q9H190): below the threshold; pKd (Q9NR12): below the threshold; pKd (Q9UDY2): below the threshold; pKd (Q9ULJ8): below the threshold; pKd (Q9UMS6): below the threshold; pKd (Q9Y3R0): below the threshold
PPRQRSETQV [HPV82-E6, Q9IR59] | below the threshold | below the threshold | below the threshold | below the threshold | below the threshold | below the threshold | below the threshold | below the threshold | below the threshold | below the threshold | below the threshold | below the threshold | below the threshold | below the threshold | below the threshold | below the threshold | below the threshold | below the threshold | below the threshold | below the threshold | pKd (PTPN13_2, Q12923): below the threshold; pKd (Q96JY6): below the threshold; pKd (Q96SB3): below the threshold; pKd (Q9C0E4): below the threshold; pKd (Q9H190): below the threshold; pKd (Q9NR12): below the threshold; pKd (Q9P227): below the threshold; pKd (Q9UDY2): below the threshold; pKd (Q9ULJ8): below the threshold; pKd (Q9UMS6): below the threshold; pKd (Q9Y3R0): below the threshold
SSIDLWETAL [SLC15A5, A6NIM6] | below the threshold | below the threshold | below the threshold | below the threshold | below the threshold | below the threshold | below the threshold | below the threshold | below the threshold | below the threshold | below the threshold | below the threshold | below the threshold | below the threshold | below the threshold | below the threshold | below the threshold | below the threshold | below the threshold | below the threshold | pKd (Q96JY6): below the threshold; pKd (Q96SB3): below the threshold; pKd (Q9C0E4): below the threshold; pKd (Q9H190): below the threshold; pKd (Q9NR12): below the threshold; pKd (Q9P227): below the threshold; pKd (Q9UDY2): below the threshold; pKd (Q9ULJ8): below the threshold; pKd (Q9UMS6): below the threshold; pKd (Q9Y3R0): below the threshold
PSRDRKETSI [RALBP1, Q15311] | below the threshold | below the threshold | below the threshold | below the threshold | below the threshold | below the threshold | below the threshold | below the threshold | below the threshold | below the threshold | below the threshold | below the threshold | below the threshold | below the threshold | below the threshold | below the threshold | below the threshold | below the threshold | below the threshold | below the threshold | pKd (PTPN13_2, Q12923): 3.79; pKd (Q96JY6): below the threshold; pKd (Q9C0E4): below the threshold; pKd (Q9H190): below the threshold; pKd (Q9NR12): below the threshold; pKd (Q9P227): below the threshold; pKd (Q9UDY2): below the threshold; pKd (Q9ULJ8): below the threshold; pKd (Q9UMS6): below the threshold; pKd (Q9Y3R0): below the threshold
